For the test, the target named is CD74 disordered region peptide (CLIP), …. Nature of the test: modified sandwich ELISA, fluorescence grade by the table's key. For orientation: An ELISA detects its analyte on a solid surface through an enzyme-linked reagent.

Regarding FlhG, the fluorescent signal (fluorescentsignal) was 100000 to 250000.

The values above are taken from US20250387450A1.
